Experimental data as given in PMC13124150, “Interrogating the structure and function of the human voltage-gated proton channel (hHv1) with a fluorescent noncanonical amino acid” (eLife, 2026).

Molecular target: the molecule itself
Assay: SEC; SEC-cleaned No TAG hHv1 injected at several concentrations on an ENrich SEC 650 column in Buffer-H2 (50 mM Tris, 150 mM NaCl, 12 mM Anz3-12, pH 8.0); compared with a run in denaturing buffer (50 mM Tris, pH 8.0, 150 mM NaCl, 0.2% SDS); Ex/Em = 280/350 nm

B1: hHv1-Cysless (His-EK-hHv1-C107A-C249A), human voltage-gated proton channel (natural protein, UniProt Q96D96 1-273, looked up)
chain: MATWDEKAVTRRAKVAPAERMSKFLRHFTVVGDDYHAWNINYKKWENEEEEEEEEQPPPTPVSGEEGRAAAPDVAPAPGPAPRAPLDFRGMLRKLFSSHRFQVIIIALVVLDALLVLAELILDLKIIQPDKNNYAAMVFHYMSITILVFFMMEIIFKLFVFRLEFFHHKFEILDAVVVVVSFILDIVLLFQEHQFEALGLLILLRLWRVARIINGIIISVKTRSERQLLRLKQMNVQLAAKIQHLEFSASEKEQEIERLNKLLRQHGLLGEVN
notes: human voltage-gated proton channel (hHv1), full-length, with C107A and C249A (Cysless); Construct name His-EK-hHv1 in pET15-b; 'EK' between the His tag and hHv1 is probably an enterokinase site (surmised); no cleavage step is described; also called No TAG; control; source: E. coli BL21-Gold(DE3), purified (Ni-NTA in Anzergent 3-12, FSEC)
- stoichiometry N: 2
